Laboratory results reported in patent publication US20240067706A1 (CENTER FOR EXCELLENCE IN MOLECULAR CELL SCIENCE CHINESE …, published 2024).

Assays:
SARS-CoV-2 S1 protein = target: T1, SARS-CoV-2 S1 protein (SARS-CoV-2, UniProt P0DTC2 16-685); assay: ELISA, coated protein
T1 construct: domain: S1

[1] = target: T2, SARS-CoV S protein expressed on the cell surface (SARS-CoV, UniProt P59594 14-1255); assay: flow cytometry on CHO cells transfected with S protein
T2 construct: whole, on cells

B1: fully human monoclonal antibody 76E1 (antibody, V domains shown)
VH: EVQLVESGGGVVQPGGSLRLSCEASGFSFKDYGMHWIRQTPGKGLEWISRISGDTRGTSYVDSVKGRFIVSRDNSRNSLFLQMNSLRSEDTALYYCAALVIVAAGDDFDLWGQGTVVTVSS
VL: QSALTQPLSVSGSPGQSVTISCTGSSSDIGSYNFVSWYRQYPGKAPKVMIYEVNKRPSGVPVRFSGSKSGNTASLTVSGLQHEDEADYYCCSYGGRNNLIFGGGTKLTVL
notes: also called 76E1 antibody
B1: no binding (tested: 10 µg/ml initial test concentration) (SARS-CoV-2 S1 protein); binds [1].
